These results are taken from publication PMC10786891, “Massively parallel profiling of RNA-targeting CRISPR-Cas13d”.

First the molecules themselves.
T1: EsCas13d, nuclease-dead (Eubacterium siraeum, UniProt B0MS50, R295A;H300A;R849A;H854A)
T1 sequence: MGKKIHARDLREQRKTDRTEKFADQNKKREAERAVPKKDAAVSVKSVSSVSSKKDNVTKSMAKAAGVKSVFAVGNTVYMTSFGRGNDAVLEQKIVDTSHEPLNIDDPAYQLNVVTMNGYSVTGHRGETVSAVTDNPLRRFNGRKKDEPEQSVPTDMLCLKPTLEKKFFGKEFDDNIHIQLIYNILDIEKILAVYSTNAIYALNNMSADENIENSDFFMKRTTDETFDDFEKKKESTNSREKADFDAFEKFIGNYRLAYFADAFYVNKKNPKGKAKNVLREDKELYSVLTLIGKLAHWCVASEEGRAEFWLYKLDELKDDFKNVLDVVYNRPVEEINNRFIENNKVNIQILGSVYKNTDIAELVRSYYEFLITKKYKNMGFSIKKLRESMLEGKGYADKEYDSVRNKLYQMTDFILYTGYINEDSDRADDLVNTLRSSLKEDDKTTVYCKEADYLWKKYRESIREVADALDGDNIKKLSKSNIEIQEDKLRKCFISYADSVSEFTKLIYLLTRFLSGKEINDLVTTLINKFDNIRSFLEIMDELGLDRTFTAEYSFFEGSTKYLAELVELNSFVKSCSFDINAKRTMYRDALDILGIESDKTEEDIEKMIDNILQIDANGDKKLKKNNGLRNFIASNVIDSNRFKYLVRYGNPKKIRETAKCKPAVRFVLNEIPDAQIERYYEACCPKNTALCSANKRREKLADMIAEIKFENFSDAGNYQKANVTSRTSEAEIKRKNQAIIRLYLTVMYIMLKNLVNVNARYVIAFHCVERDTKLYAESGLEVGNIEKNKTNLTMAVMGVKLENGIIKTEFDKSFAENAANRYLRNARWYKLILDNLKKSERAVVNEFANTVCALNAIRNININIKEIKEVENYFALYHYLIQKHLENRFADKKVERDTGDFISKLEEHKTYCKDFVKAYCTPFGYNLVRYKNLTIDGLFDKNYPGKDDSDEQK

B1: target 1 MT 5'PFS GUA 3'PFS GCU (mixed)
RNA 1: CACCCGUGCAAAAAUGCAGGGGUCUAAAACUGAGCGGAUAACCUCUCUAUGG
RNA 2: GGGAAUGGAUCCACAUCUACGAAUUCGUACCAUAGAGAGGUUAUCCGCUCAGCUAGAUCGGAAGAGCACACGU
B2: target 1 MT 5'PFS CUA 3'PFS UCC (mixed)
RNA 1: B1 RNA 1
RNA 2: B1 RNA 2 with G27C, G52U, U54C
B3: target 1 MT 5'PFS CUA 3'PFS UCG (mixed)
RNA 1: B1 RNA 1
RNA 2: B1 RNA 2 with G27C, G52U, U54G
B4: target 1 MT 5'PFS GUA 3'PFS GCG (mixed)
RNA 1: B1 RNA 1
RNA 2: B1 RNA 2 with U54G
B5: target 1 MT 5'PFS CCU 3'PFS UCU (mixed)
RNA 1: B1 RNA 1
RNA 2: B1 RNA 2 with G27C, U28C, A29U, G52U
B6: target 1 MT 5'PFS GAC 3'PFS AUC (mixed)
RNA 1: B1 RNA 1
RNA 2: B1 RNA 2 with U28A, A29C, G52A, C53U, U54C
B7: target 1 MT 5'PFS AAA 3'PFS AAC (mixed)
RNA 1: B1 RNA 1
RNA 2: B1 RNA 2 with G27A, U28A, G52A, C53A, U54C
B8: target 1 MT 5'PFS AGG 3'PFS AAA (mixed)
RNA 1: B1 RNA 1
RNA 2: B1 RNA 2 with G27A, U28G, A29G, G52A, C53A, U54A
B9: target 1 MT 5'PFS GUA 3'PFS GCA (mixed)
RNA 1: B1 RNA 1
RNA 2: B1 RNA 2 with U54A
B10: target 1 MT 5'PFS AGG 3'PFS CCG (mixed)
RNA 1: B1 RNA 1
RNA 2: B1 RNA 2 with G27A, U28G, A29G, G52C, U54G
B11: target 1 MT 5'PFS CAG 3'PFS AAA (mixed)
RNA 1: B1 RNA 1
RNA 2: B1 RNA 2 with G27C, U28A, A29G, G52A, C53A, U54A
B12: target 1 MT 5'PFS AUG 3'PFS UCU (mixed)
RNA 1: B1 RNA 1
RNA 2: B1 RNA 2 with G27A, A29G, G52U
B13: target 1 MT 5'PFS ACC 3'PFS UCC (mixed)
RNA 1: B1 RNA 1
RNA 2: B1 RNA 2 with G27A, U28C, A29C, G52U, U54C
B14: target 1 MT 5'PFS GUA 3'PFS GCC (mixed)
RNA 1: B1 RNA 1
RNA 2: B1 RNA 2 with U54C
B15: target 1 MT 5'PFS UGC 3'PFS UGU (mixed)
RNA 1: B1 RNA 1
RNA 2: B1 RNA 2 with G27U, U28G, A29C, G52U, C53G
B16: target 1 MT 5'PFS ACC 3'PFS UCG (mixed)
RNA 1: B1 RNA 1
RNA 2: B1 RNA 2 with G27A, U28C, A29C, G52U, U54G
B17: target 1 MT 5'PFS UCA 3'PFS CAG (mixed)
RNA 1: B1 RNA 1
RNA 2: B1 RNA 2 with G27U, U28C, G52C, C53A, U54G
B18: target 1 MT 5'PFS UCA 3'PFS CAU (mixed)
RNA 1: B1 RNA 1
RNA 2: B1 RNA 2 with G27U, U28C, G52C, C53A
B19: target 1 MT 5'PFS GGC 3'PFS AGG (mixed)
RNA 1: B1 RNA 1
RNA 2: B1 RNA 2 with U28G, A29C, G52A, C53G, U54G
B20: target 1 MT 5'PFS ACA 3'PFS CUA (mixed)
RNA 1: B1 RNA 1
RNA 2: B1 RNA 2 with G27A, U28C, G52C, C53U, U54A
B21: target 1 A1G,A16U (mixed)
RNA 1: B1 RNA 1
RNA 2: B1 RNA 2 with A36U, A51G, G52C, U54G
B22: target 1 MT 5'PFS ACC 3'PFS UCU (mixed)
RNA 1: B1 RNA 1
RNA 2: B1 RNA 2 with G27A, U28C, A29C, G52U
B23: target 1 MT 5'PFS AAA 3'PFS AAA (mixed)
RNA 1: B1 RNA 1
RNA 2: B1 RNA 2 with G27A, U28A, G52A, C53A, U54A
B24: target 1 MT 5'PFS UCA 3'PFS CAC (mixed)
RNA 1: B1 RNA 1
RNA 2: B1 RNA 2 with G27U, U28C, G52C, C53A, U54C
B25: target 1 MT 5'PFS GGC 3'PFS AGU (mixed)
RNA 1: B1 RNA 1
RNA 2: B1 RNA 2 with U28G, A29C, G52A, C53G
B26: target 1 MT 5'PFS GAA 3'PFS CGU (mixed)
RNA 1: B1 RNA 1
RNA 2: B1 RNA 2 with U28A, G52C, C53G
B27: target 1 MT 5'PFS AGC 3'PFS AUC (mixed)
RNA 1: B1 RNA 1
RNA 2: B1 RNA 2 with G27A, U28G, A29C, G52A, C53U, U54C
B28: target 1 MT 5'PFS AGG 3'PFS AAU (mixed)
RNA 1: B1 RNA 1
RNA 2: B1 RNA 2 with G27A, U28G, A29G, G52A, C53A
B29: target 1 MT 5'PFS AAG 3'PFS ACU (mixed)
RNA 1: B1 RNA 1
RNA 2: B1 RNA 2 with G27A, U28A, A29G, G52A
B30: target 1 MT 5'PFS AAG 3'PFS ACA (mixed)
RNA 1: B1 RNA 1
RNA 2: B1 RNA 2 with G27A, U28A, A29G, G52A, U54A
B31: target 1 U3G,C7A (mixed)
RNA 1: B1 RNA 1
RNA 2: B1 RNA 2 with C45A, U49G, G52C, U54G
B32: target 1 MT 5'PFS GAC 3'PFS AUU (mixed)
RNA 1: B1 RNA 1
RNA 2: B1 RNA 2 with U28A, A29C, G52A, C53U
B33: target 1 A16U (mixed)
RNA 1: B1 RNA 1
RNA 2: B1 RNA 2 with A36U, G52C, U54G
B34: target 1 MT 5'PFS AAA 3'PFS AAG (mixed)
RNA 1: B1 RNA 1
RNA 2: B1 RNA 2 with G27A, U28A, G52A, C53A, U54G
B35: target 1 MT 5'PFS GAC 3'PFS AUA (mixed)
RNA 1: B1 RNA 1
RNA 2: B1 RNA 2 with U28A, A29C, G52A, C53U, U54A
B36: target 1 MT 5'PFS GGC 3'PFS UGC (mixed)
RNA 1: B1 RNA 1
RNA 2: B1 RNA 2 with U28G, A29C, G52U, C53G, U54C
B37: target 1 MT 5'PFS AAC 3'PFS UCC (mixed)
RNA 1: B1 RNA 1
RNA 2: B1 RNA 2 with G27A, U28A, A29C, G52U, U54C
B38: target 1 MT 5'PFS AAC 3'PFS UCU (mixed)
RNA 1: B1 RNA 1
RNA 2: B1 RNA 2 with G27A, U28A, A29C, G52U

Where a chain is given by its changes, count along the chain named. Names may count otherwise.

In general, Kd refers to the constant that tells how readily two partners part at equilibrium. Read a low Kd as a tighter complex.

The data set addresses T1, EsCas13d, nuclease-dead. Nature of the data set: crRNA (strand 1, pre-loaded); Mg2+; 40 mM Tris-HCl pH 7.5, 150 mM NaCl, 6 mM MgCl2, 1 mM DTT, 0.1% Tween-20, 0.2 mg/ml BSA; 25 C; 10 min per concentration, then washed. The conditions noted are these: tags: His6-TwinStrep-SUMO cleaved; N-terminal SNAP kept (SNAP-Surface 488); label: 3' end held by stalled T7 RNA polymerase.
On to B1, for which the Kd was 4.18 ± 0.37 nM. The figure for B2 is 16.2 ± 4.8 nM. B3 had a Kd of 6 ± 0.95 nM. The figure for B4 is 7.29 ± 0.49 nM; for B5 it is 14.4 ± 3.1 nM. Regarding B6, the dissociation constant (Kd) is roughly 29 nM. In turn, B7 had a Kd of 30 ± 12 nM. The figure for B8 is roughly 50 nM; for B9 it is 13.8 ± 1.4 nM; for B10 it is 28.3 ± 6.35 nM.

B11 returned a Kd of roughly 51.5 nM. Regarding B12, the dissociation constant (Kd) is 10.6 ± 1.75 nM. With B13, the Kd is roughly 21 nM. The molecule B14 had a Kd of 8.5 ± 1 nM. As to B15, the affinity, expressed as Kd, was 38 ± 13 nM.

Molecule B16 returned a Kd of 8.5 ± 3.6 nM.

Molecule B17 returned a Kd of roughly 84 nM. As to B18, the Kd came out at 14.7 ± 4.85 nM.

For the molecule B19, the Kd came to 33.5 ± 5 nM. The figure for B20 is 12.7 ± 3.5 nM. The figure for B21 is 45 ± 11 nM. With B22, binding was characterised by a dissociation constant (Kd) of 8.2 ± 3.2 nM. The figure for B23 is 33.5 ± 14.5 nM; for B24 it is 11 ± 5.5 nM.

In turn, B25 showed a Kd of 17.1 ± 2.45 nM. B26 had a Kd of 15.5 ± 4.5 nM. As for B27, the figure is roughly 30.5 nM. The figure for B28 is roughly 60 nM; for B29 it is 16.5 ± 6 nM.

In the case of B30, the Kd is 23.5 ± 10 nM. As for B31, the figure is 7.19 ± 0.31 nM. With B32, the Kd was 21.4 ± 4.45 nM.

As to B33, the Kd is 58 ± 9 nM. B34 showed a Kd of 25.5 ± 6.5 nM. The figure for B35 is 25 ± 7.05 nM; for B36 it is 8.6 ± 1.35 nM. The molecule B37 had a Kd of roughly 13.5 nM.

With B38, binding was put at a Kd of 22.5 ± 6.5 nM.
